# Results published in EP1496124A1 (Oklahoma Medical Research Foundation, dated 2005).
# Ends that are not written are not given here.
# Columns and labels:
# [1] = target: T1, recombinant memapsin 2 (human, UniProt P56817 14-454, limits assumed); test: enzyme inhibition with a synthetic fluorogenic peptide substrate
# T1 construct: also called M2; beta-secretase
# [2] = target: M2pd (modified M2 containing amino acids from Ala-8P to Ala326) (human) (UniProt P56817); test: cell-based or functional assay
# [3] = target: T1, recombinant memapsin 2; test: comparison of inhibition constants
# [4] = target: T1, recombinant memapsin 2; test: Ki as stated in the crystallisation example; assay not described there
# T1 sequence (P56817 14-454 limits assumed): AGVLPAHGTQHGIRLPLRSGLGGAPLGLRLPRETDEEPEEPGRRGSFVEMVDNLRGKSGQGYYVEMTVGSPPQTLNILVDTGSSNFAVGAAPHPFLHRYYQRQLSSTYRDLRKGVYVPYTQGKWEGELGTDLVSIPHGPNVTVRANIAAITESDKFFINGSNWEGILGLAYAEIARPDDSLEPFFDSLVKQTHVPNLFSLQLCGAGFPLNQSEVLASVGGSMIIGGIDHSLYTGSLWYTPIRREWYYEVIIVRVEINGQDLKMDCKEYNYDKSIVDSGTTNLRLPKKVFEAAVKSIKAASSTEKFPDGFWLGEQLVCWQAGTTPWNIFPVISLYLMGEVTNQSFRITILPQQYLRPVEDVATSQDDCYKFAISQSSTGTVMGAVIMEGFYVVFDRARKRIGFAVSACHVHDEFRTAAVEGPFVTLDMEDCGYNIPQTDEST
# Sequence of M2pd (modified M2 containing amino acids from Ala-8P to Ala326) (human) (P56817 22-501 limits assumed): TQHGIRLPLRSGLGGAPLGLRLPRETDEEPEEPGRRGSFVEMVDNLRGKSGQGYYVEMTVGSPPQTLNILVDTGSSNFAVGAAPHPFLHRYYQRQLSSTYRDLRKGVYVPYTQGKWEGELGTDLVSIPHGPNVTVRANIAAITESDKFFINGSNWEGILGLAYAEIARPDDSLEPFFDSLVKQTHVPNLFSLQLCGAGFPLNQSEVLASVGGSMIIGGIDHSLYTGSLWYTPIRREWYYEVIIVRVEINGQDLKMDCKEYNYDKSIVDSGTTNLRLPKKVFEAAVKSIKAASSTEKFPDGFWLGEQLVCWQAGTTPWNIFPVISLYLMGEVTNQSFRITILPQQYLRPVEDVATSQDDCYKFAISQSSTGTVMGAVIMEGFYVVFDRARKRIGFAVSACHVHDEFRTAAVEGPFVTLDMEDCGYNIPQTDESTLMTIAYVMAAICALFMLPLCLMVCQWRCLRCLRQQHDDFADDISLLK
molecule,measurement,setting,value
OM99-1 (peptide),Ki,[1],0.03 µM
Pepstatin A (peptide),IC50 (inhibition of enzyme activity),[2],300 µM
VNLAAEF (also: Leu3-Ala4 bond replaced by hydroxyethylene isostere -CH(OH)-CH2-) [OM99-2 with P4 Glu absent],fold increase in Ki against OM99-2,[3],10 fold
"EVNLAAEF (also: Leu4-Ala5 peptide bond replaced by hydroxyethylene isostere -CH(OH)-CH2-, Synthetic substrate analogue based on the beta-secretase site of Swedish mutant APP) [OM99-2]",Ki,[4],0.01 µM
